Data on three molecules can be found in publication PMC3413365 (The Journal of Cell Biology, 2012).

B1: Lucifer yellow–labeled BiP substrate peptide (NH2-HTFPAVLGSC-COOH) (peptide)
peptide: H-HTFPAVLGSC-OH
modifications: also: Lucifer yellow iodoacetamide label, residue not given here

Experiment in all cases: fluorescence polarisation
(In general: Fluorescence polarisation rises when a labelled molecule tumbles more slowly, as on binding a larger partner.)

Assay [1] addresses BiP^Δ(554–654);R470E (hamster, UniProt G3I8R9 19-553, R470E).
For assay [2], the target named is T1, H6-tagged hamster BiP, wild type (hamster, UniProt G3I8R9 19-654).
T1 sequence (G3I8R9 19-654): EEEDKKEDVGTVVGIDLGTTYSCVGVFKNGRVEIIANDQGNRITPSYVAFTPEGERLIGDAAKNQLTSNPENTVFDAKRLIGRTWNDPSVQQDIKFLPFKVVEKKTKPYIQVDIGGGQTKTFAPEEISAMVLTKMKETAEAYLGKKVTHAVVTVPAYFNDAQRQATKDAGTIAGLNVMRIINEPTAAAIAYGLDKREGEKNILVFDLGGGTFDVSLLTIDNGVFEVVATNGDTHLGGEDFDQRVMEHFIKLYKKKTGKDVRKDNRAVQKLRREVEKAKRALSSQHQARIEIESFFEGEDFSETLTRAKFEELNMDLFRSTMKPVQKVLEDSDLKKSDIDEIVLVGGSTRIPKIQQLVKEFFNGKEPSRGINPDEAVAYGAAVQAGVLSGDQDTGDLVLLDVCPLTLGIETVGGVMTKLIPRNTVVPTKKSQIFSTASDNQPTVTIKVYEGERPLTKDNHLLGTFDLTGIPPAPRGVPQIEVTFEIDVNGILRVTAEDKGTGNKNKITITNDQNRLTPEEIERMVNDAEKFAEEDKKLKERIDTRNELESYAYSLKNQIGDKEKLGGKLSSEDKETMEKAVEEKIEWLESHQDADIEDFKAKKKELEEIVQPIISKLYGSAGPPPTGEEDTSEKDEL
Assay [3] deals with T2, BiP^R470E (hamster, UniProt G3I8R9 19-654, R470E).
T2 sequence (G3I8R9 19-654 R470E): as the sequence (G3I8R9 19-654) above, with R452E counted along it
Assay [4] addresses Lidless BiP (Δ554-654) (hamster, UniProt G3I8R9 19-553).
The target of assay [5] is T1, H6-tagged hamster BiP, wild type. The source holds these as a separate data set.
Assay [6] concerns the target T2, BiP^R470E. The source holds these as a separate data set.
The target in assay [7] is B1.

As usually defined, the koff is the first-order rate constant of dissociation. Lower therefore signals a long-lived complex. One may read the Kd as the equilibrium constant for the complex coming apart.

Chain of BiP^Δ(554–654);R470E (G3I8R9 19-553 R470E): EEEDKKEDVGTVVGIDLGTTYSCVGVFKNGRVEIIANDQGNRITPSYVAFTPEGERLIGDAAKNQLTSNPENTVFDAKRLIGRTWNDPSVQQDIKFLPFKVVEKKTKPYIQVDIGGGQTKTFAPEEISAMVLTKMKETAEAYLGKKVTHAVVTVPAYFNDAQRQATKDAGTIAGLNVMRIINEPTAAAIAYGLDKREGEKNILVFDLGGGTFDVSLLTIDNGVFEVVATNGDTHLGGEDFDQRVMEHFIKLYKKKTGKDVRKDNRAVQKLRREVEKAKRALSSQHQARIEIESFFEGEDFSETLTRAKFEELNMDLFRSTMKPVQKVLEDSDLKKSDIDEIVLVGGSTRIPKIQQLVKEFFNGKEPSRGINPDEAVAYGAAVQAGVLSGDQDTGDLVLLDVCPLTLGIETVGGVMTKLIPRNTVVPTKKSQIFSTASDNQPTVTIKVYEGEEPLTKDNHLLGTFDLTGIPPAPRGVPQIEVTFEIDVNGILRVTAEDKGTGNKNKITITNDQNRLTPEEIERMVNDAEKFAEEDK
Chain of Lidless BiP (Δ554-654) (G3I8R9 19-553, stated change not applied): as the sequence (G3I8R9 19-553 R470E) above, with E452R counted along it

For the molecule B1, the koff was determined as 0.00328 s⁻¹ in assay [1], 0.0002 s⁻¹ in assay [2], 0.0074 s⁻¹ in assay [3] and 0.0017 s⁻¹ in assay [4]. Besides, the Kd in assay [5] amounted to 13 µM; in assay [6], 9 µM.

B2: BiP^R470K (natural protein)
chain: not shown
As to B2, the “fold change of the peptide off-rate against wild type” value in assay [7] is 3 fold.

B3: BiP^R492K (natural protein)
chain: not shown
As to B3, the “fold change of the peptide off-rate against wild type” value in assay [7] came to 3 fold.
